From publication PMC11741300
Like-named read-outs stand apart in the source and are kept apart here.

What was measured:
[1] = target: T1, Cy3-PARP1 (Homo sapiens, UniProt P09874 1-1014); experiment: smTIRFM
[2] = target: T1, Cy3-PARP1; experiment: smTIRFM; remark: listed apart in the source
[3] = target: T2, PARP1 (unlabeled) (Homo sapiens, UniProt P09874 1-1014); experiment: mass photometry
[4] = target: T2, PARP1 (unlabeled); experiment: mass photometry; remark: listed apart in the source
[5] = target: T2, PARP1 (unlabeled); experiment: mass photometry; remark: listed apart in the source
[6] = target: T1, Cy3-PARP1; experiment: smTIRFM; remark: listed apart in the source
[7] = target: T1, Cy3-PARP1; experiment: smTIRFM; remark: listed apart in the source

T2 sequence (P09874 whole entry): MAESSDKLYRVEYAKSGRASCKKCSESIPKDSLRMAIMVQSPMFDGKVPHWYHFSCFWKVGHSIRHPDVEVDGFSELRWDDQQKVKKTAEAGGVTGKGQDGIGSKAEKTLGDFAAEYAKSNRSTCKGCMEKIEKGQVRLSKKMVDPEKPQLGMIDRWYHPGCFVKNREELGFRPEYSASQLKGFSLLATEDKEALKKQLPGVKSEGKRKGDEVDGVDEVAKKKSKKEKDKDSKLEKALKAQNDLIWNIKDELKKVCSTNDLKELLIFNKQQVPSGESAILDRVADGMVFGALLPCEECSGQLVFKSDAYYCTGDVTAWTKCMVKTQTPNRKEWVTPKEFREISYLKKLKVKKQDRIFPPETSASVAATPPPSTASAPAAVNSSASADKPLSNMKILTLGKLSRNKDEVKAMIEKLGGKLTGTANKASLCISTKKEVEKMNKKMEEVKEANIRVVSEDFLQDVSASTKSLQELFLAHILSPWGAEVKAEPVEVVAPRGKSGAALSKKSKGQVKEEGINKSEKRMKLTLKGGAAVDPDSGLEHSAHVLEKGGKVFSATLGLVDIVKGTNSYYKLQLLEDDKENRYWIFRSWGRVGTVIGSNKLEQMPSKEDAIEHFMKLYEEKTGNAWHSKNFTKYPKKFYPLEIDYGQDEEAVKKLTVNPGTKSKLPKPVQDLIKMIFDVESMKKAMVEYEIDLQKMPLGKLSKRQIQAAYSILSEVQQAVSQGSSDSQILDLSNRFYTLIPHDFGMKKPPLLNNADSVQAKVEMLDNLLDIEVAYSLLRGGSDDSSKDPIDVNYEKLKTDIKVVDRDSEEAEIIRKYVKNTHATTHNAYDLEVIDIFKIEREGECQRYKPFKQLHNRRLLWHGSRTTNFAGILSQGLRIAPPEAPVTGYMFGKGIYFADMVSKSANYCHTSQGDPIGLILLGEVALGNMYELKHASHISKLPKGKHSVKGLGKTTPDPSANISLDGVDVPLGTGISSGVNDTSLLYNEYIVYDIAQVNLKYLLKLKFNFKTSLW
T1 sequence (P09874 whole entry): as above

B1: nicked (smTIRFM) (structured_DNA)
DNA 1: TGGCGACGGCAGCGAGGCTCTAATGCATTAAGTTCCTTAATGCATTAGA
DNA 2: GCCTCGCTGCCGTCGCCA
modifications: 3' biotin on strand 2
Kd [1]: 3.96 ± 0.2 nM | Kd [2]: 2.67 ± 0.16 nM

GGGCGGGCGCGAGGGAGGGGAGG (structured_DNA, 3' biotin) [cKITG4 (smTIRFM)]
Kd [1]: 0.04 ± 0.002 nM

B2: nicked (MP) (structured_DNA)
DNA: CATGTAGTCACTATGAGGCATAGTGACTACATGATCTAATGCATTAAGTTCCTTAATGCATTAGAT
binding result [3]: binds

B3: cKITG4-PT (MP) (structured_DNA)
DNA: CATGTAGTCACTATGATTAGGCATAGTGACTACATGGGGCGGGCGCGAGGGAGGGGAGGATCTAATGCATTAAGTTCGCTTAATGCATTAGAT
binding result [4]: binds

B4: ssDNA (dT)90 (MP) (ssDNA)
DNA: TTTTTTTTTTTTTTTTTTTTTTTTTTTTTTTTTTTTTTTTTTTTTTTTTTTTTTTTTTTTTTTTTTTTTTTTTTTTTTTTTTTTTTTTTT
binding result [5]: no binding

B5: cKITG4-PT (smTIRFM) (structured_DNA)
DNA 1: TGGCGACGGCAGCGAGGCGGGCGGGCGCGAGGGAGGGGAGGTCTAATGCATTAAGTTCCTTAATGCATTAGA
DNA 2: GCCTCGCTGCCGTCGCCA
modifications: 3' biotin on strand 2
Kd [1]: 3.24 ± 0.09 nM

TGGGTGGGTAGGGTGGGTTT (structured_DNA, 3' biotin) [cMYCG4]
binding result [6]: binds

B6: dsDNA (smTIRFM) (dsDNA)
DNA 1: CATGTAGTCACTATGCTACTGTG
DNA 2: CACAGTAGCATAGTGACTACATG
modifications: 3' biotin on strand 1
binding result [7]: binds
